Data: patent US20060270591A1, “Androgen receptor coregulators” (priority 2002, published 2006)
One block for each molecule: values may come before it.

Key:
Type in all cases: cell-based, human
AR [1] = test: AR transactivation assay, MMTV-CAT reporter, transient transfection (Example 1); conditions: for AR transcription activity with cotransfected coactivator: wild type AR
Protocol: Human prostate cancer DU145 or PC3 cells, or human lung carcinoma cells NCI H1299 were grown in Dulbecco's minimal essential medium (DMEM) containing penicillin (25 U/ml), streptomycin (25˜g/ml), and 5% fetal calf serum (FCS). One hour before transfection, the medium was changed to DMEM with 5% charcoal-stripped FCS. […] A β-galactosidase expression plasmid, pCMV-β-gal, was used as an internal control for transfection efficiency.
The medium was changed 24 hr posttransfection and the cells treated with either steroid hormones or hydroxyflutamide, and cultured for an additional 24 hr. Cells were harvested and assayed for CAT activity after the cell lysates were normalized by using β-galactosidaseas an internal control. Chloramphenicol acetyltransferase (CA) activity was visualized by PhosphorImager (Molecular Dynamics) and quantitated by ImageQuant software (Molecular Dynamics).

AR [2] = test: AR transactivation reporter assay (CAT/luciferase) (Example 3); conditions: for effect of ARA70N construct on AR transactivation: COS-1 cells, 10 nM T, MMTV-LUC
Protocol: 21. […] Further adding GAL-DBD (lane 1 and 2) or GAL-DBD-ARA70N with wild type (lane 3 and 4) or mutant (lane 5-8) FXXLF motifs to the cells. (B) Effect of wild type and mutant FXXLF motifs ARA70N on AR transactivation in COS-1 cells. […] 0.5 ng SV40-Renila Luciferase was used as an internal control. Relative luciferase activity was calculated by dual luciferase system.
411. Human prostate cancer DU145 and PC-3 cells were maintained in Dulbecco's Minimum Essential Medium (DMEM) containing penicillin (25 U/ml), streptomycin (25 μg/ml), and 5% fetal calf serum (FCS). Human LNCaP cells were maintained in RPMI containing penicillin (25 U/ml), streptomycin (25 μg/ml), and 10% FCS. Transfections were performed using the calcium phosphate precipitation method, as previously described (Dynlacht et al. (1991) Cell 66, 563-576). Briefly, 4×10^5 cells were plated on 60-mm dishes 24 hours before transfection, and the medium was changed to DMEM with 5% charcoal-dextran stripped FCS (CS-FBS) one hour before transfection. Transfection medium contained a constant amount of reporter plasmid and indicated amounts of pSG5-receptor, ARA70, or pCMX-GAL fusion construct using pSG5 as a carrier to provide equal amounts of transfected DNA. […] After another 24 hours, the cells were harvested for chloramphenicol transferase (CAT) or luciferase assays. At least three independent experiments were carried out in each case. Superfect (Qiagen) was used for transfection in LNCaP cells. The transfection conditions followed the manufacturer's protocol. Cell extracts were prepared and assayed for CAT or luciferase activity (Promega) and normalized against β-galactosidase or Renilla luciferase activity as indicated. All data were the mean±SD results from three to six independent experiments.
Target sequence in this assay (P10275 whole entry, the tested form may be a part): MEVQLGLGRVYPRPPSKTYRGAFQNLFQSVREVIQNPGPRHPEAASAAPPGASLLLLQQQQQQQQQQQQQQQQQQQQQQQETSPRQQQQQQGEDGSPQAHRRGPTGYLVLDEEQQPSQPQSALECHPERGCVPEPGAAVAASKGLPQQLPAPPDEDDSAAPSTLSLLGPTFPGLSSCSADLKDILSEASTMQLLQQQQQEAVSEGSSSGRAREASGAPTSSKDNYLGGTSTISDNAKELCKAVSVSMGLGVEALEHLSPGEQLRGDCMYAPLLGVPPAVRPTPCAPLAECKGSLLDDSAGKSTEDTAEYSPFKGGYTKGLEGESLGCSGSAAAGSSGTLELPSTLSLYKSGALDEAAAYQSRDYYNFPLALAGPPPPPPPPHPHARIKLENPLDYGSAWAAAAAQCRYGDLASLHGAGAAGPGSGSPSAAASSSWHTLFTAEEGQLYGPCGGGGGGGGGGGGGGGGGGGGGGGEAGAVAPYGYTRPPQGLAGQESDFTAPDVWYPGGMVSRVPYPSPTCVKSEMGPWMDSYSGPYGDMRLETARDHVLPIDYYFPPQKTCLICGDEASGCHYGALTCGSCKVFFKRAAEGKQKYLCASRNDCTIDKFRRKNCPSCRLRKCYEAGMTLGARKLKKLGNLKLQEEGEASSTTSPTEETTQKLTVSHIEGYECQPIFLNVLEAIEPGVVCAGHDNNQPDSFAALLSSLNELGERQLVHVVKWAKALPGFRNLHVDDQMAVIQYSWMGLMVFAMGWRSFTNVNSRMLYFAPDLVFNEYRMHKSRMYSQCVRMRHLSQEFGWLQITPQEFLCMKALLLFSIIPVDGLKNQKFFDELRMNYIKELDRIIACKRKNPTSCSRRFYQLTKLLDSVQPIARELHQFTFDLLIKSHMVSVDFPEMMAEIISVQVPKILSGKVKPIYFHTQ

AR [3] = test: Mammalian two-hybrid CAT assay, interaction with AR in DU145 cells (Example 1)
From the text: 368. The mammalian two-hybrid system employed was essentially the protocol of Clontech (California), with the following modifications. In order to obtain better expression, the GAL4 DBD (a.a. 1-147) was fused to pSGS under the control of an SV40 promoter, and named pGALO.
369. The hinge and LBD of wtAR were then inserted into pGALO. Similarly, the VPI6 activation domain was fused to pCMX under the control of a CMV promoter, and designated pCMX-VP16 (provided by Dr. R. M. Evan).
Target sequence in this assay (P10275 669-900 limits assumed): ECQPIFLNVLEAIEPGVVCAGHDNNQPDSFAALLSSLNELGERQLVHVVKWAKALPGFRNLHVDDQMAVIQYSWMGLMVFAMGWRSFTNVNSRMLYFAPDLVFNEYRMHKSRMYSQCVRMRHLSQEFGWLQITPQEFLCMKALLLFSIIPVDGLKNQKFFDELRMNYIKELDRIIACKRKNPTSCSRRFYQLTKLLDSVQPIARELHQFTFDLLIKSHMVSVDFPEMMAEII

PSA = PSA northern and western blot in LNCaP cells (Example 3); conditions: 1 nM DHT
From the text: 20. […] (A) ARA70-N2 can serve as a dominant-negative to inhibit coregulator enhanced AR activity in DU145 cells. The pCMV-β-gal construct was used as an internal control, and the relative CAT activity was normalized by the β-gal activity. Data represent the mean±S.D. of four independent experiments. (B) ARA70-N2 can serve as a dominant-negative repressor to compete with the function of endogenous coregulators and inhibit AR transactivation in LNCaP cells. (C) ARA70-N2 can serve as a dominant-negative repressor to inhibit the expression of PSA mRNA in LNCaP cells. Human prostate cancer LNCaP cells were transfected with 4 and 8 μg of ARA70-N2 for 3 hours. […] The blot containing 20 μg total RNA in each lane was hybridized with a PSA specific cDNA probe. […] (D) ARA70-N2 can inhibit PSA protein expression in a dominant-negative manner. 4×10^6 LNCaP cells were plated on 100-mm dishes 24 hours before transfection. […] The blot containing 70 μg total cell lysate in each lane was hybridized with a PSA specific antibody. The same membrane was hybridized with a specific antibody for β-actin for equal protein loading.

B1: ARA55251-444: C-terminus of ARA55 (a.a. 251-444 of SEQ ID NO:4) (protein)
chain: EKDGAPFCPECYFERFSPRCGFCNQPIRHKMVTALGTHWHPEHFCCVSCGEPFGDEGFHEREGRPYCRRDFLQLFAPRCQGCQGPILDNYISALSLLWHPDCFVCRECFAPFSGGSFFEHEGRPLCENHFHARRGSLCPTCGLPVTGRCVSALGRRFHPDHFACTFCLRPLTKGSFQERAGKPYCQPCFLKLFG
modifications: Homo sapien
- effect on AR transcription activity (AR [1]; PC3 cells, endogenous ARA55, 10 nM DHT): dramatically reduced AR transcription activity

B2: ARA55: AR coactivator, 444 aa polypeptide with high homology to mouse hic5 (protein)
chain: ANFNQSGNIADSSLSFTFTNSSNGPNLITTQTNSQALSQPIASSNVHDNFMNNEITASKIDDGNNSKPLSPGWTDQTAYNAFGITTGMFNTTTMDDVYNYLFDDEDTPPNPKKEMPRSGAPKERPAEPLTPPPSYGHQPTGQSGESSGASGDKDHLYSTVCKPRSPKPAAPAAPPFSSSSGVLGTGLCELDRLLQELNATQFNITDEIMSQFPSSKVASGEQKEDQSEDKKRPSLPSSPSPGLPKASATSATLELDRLMASLPDFRVQNHLPASGPTQPPVVSSTNEGSPSPPEPTAKGSLDTMLGLLQSDLSRRGVPTQAKGLCGSCNKPIAGQVVTALGRAWHPEHFVCGGCSTALGGSSFFEKDGAPFCPECYFERFSPRCGFCNQPIRHKMVTALGTHWHPEHFCCVSCGEPFGDEGFHEREGRPYCRRDFLQLFAPRCQGCQGPILDNYISALSLLWHPDCFVCRECFAPFSGGSFFEHEGRPLCENHFHARRGSLCPTCGLPVTGRCVSALGRRFHPDHFACTFCLRPLTKGSFQERAGKPYCQPCFLKLFG
- enhancement of transactivation of wtAR, mARt877s and mARe708k (AR [1]; DHT 10^−11 to 10^−8 M, all three receptors): 4-8 fold
- further increase of the DHT induction (AR [1]; DU145 cells, 10 nM DHT, AR:ARA55 up to 1:4.5): 5.3 fold
- AR transcription activity with coactivator (AR [1]; DU145 cells, 10 nM DHT, with ARA55): 22.8 fold
- increase of AR transcription activity upon transfection with exogenous ARA55 (AR [1]; PC3 cells): 4 fold

- effect of ARA70N construct on AR transactivation (AR [2]): marginal induction effect
B3: pSG5-ARA70N-AXXLF: ARA70N with FXXLF motif mutated to AXXLF (protein)
chain: MNTFQDQSGSSSNREPLLRCSDARRDLELAIGGVLRAEQQIKDNLREVKAQIHSCISRHLECLRSREVWLYEQVDLIYQLKEETLQQQAQQLYSLLGQFNCLTHQLECTQNKDLANQVSVCLERLGSLTLKPEDSTVLLFEADTITLRQTITTFGSLKTIQIPEHLMAHASSANIGPFLEKRGCISMPEQKSASGIVAVPFSEWLLGSKPASGYQAPYIPSTDPQDWLTQKQTLENSQTSSRACNFFNNVGGNLKGLENWLLKSEKSSYQKCNSHSTTSSFSIEMEKVGDQELPDQDEMDLSDWLVTPQESHKLRKPENGSRETSEKFKLLFQSYNVNDWLVKTDSCTNCQGNQPKGVEIENLGNLKCLNDHLEAKKPLSTPSMVTEDWLVQNHQDPCKVE

- effect of ARA70N construct on AR transactivation (AR [2]): marginal induction effect
B4: pSG5-ARA70N-FXXAA: ARA70N with FXXLF motif mutated to FXXAA (protein)
chain: B3 chain

B5: Rb: retinoblastoma protein (protein, UniProt P06400 2-928, looked up)
Retinoblastoma-associated …: PPKTPRKTAATAAAAAAEPPAPPPPPPPEEDPEQDSGPEDLPLVRLEFEETEEPDFTALCQKLKIPDHVRERAWLTWEKVSSVDGVLGGYIQKKKELWGICIFIAAVDLDEMSFTFTELQKNIEISVHKFFNLLKEIDTSTKVDNAMSRLLKKYDVLFALFSKLERTCELIYLTQPSSSISTEINSALVLKVSWITFLLAKGEVLQMEDDLVISFQLMLCVLDYFIKLSPPMLLKEPYKTAVIPINGSPRTPRRGQNRSARIAKQLENDTRIIEVLCKEHECNIDEVKNVYFKNFIPFMNSLGLVTSNGLPEVENLSKRYEEIYLKNKDLDARLFLDHDKTLQTDSIDSFETQRTPRKSNLDEEVNVIPPHTPVRTVMNTIQQLMMILNSASDQPSENLISYFNNCTVNPKESILKRVKDIGYIFKEKFAKAVGQGCVEIGSQRYKLGVRLYYRVMESMLKSEEERLSIQNFSKLLNDNIFHMSLLACALEVVMATYSRSTSQNLDSGTDLSFPWILNVLNLKAFDFYKVIESFIKAEGNLTREMIKHLERCEHRIMESLAWLSDSPLFDLIKQSKDREGPTDHLESACPLNLPLQNNHTAADMYLSPVRSPKKKGSTTRVNSTANAETQATSAFQTQKPLKSTSLSLFYKKVYRLAYLRLNTLCERLLSEHPELEHIIWTLFQHTLQNEYELMRDRHLDQIMMCSMYGICKVKNIDLKFKIIVTAYKDLPHAVQETFKRVLIKEEEYDSIIVFYNSVFMQRLKTNILQYASTRPPTLSPIPHIPRSPYKFPSSPLRIPGGNIYISPLKSPYKISEGLPTPTKMTPRSRILVSIGESFGTSEKFQKINQMVCNSDRVLKRSAEGSNPPKPLKKLRFDIEGSDEADGSKHLPGESKFQQKLAEMTSTRTRMQKQKMNDSMDTSNKEEK
- induced CAT activity in mammalian two-hybrid assay (AR [3]): 3 fold
- AR transcription activity with cotransfected coactivator (AR [1]; DU145 cells, 1 nM DHT): 21 fold
- AR transcription activity with cotransfected coactivator (AR [1]; DU145 cells, 10 nM E2): 12 fold

B6: ARA70-N2: ARA70 region between amino acids 176-401, dominant-negative repressor (protein, UniProt Q13772 176-401, looked up, fragment)
chain: GPFLEKRGCISMPEQKSASGIVAVPFSEWLLGSKPASGYQAPYIPSTDPQDWLTQKQTLENSQTSSRACNFFNNVGGNLKGLENWLLKSEKSSYQKCNSHSTTSSFSIEMEKVGDQELPDQDEMDLSDWLVTPQESHKLRKPENGSRETSEKFKLLFQSYNVNDWLVKTDSCTNCQGNQPKGVEIENLGNLKCLNDHLEAKKPLSTPSMVTEDWLVQNHQDPCKVE
- effect on ARA70N-enhanced AR transactivation (AR [2]; DU145 cells): inhibit ARA70N-enhanced AR transactivation
- effect on PSA mRNA and protein expression (PSA): repressed PSA mRNA
